The values that follow come from patent US20220064329A1 (Novo Nordisk, published 2022).

The chains are these.
T1: recombinant human activated Factor VII (FVIIa) (human, UniProt P08709 61-212; P08709 213-466, ten glutamate residues of the Gla domain may be gamma-carboxylated)
T1 construct: chains tethered by a disulfide bond; also called Factor VIIa; rFVIIa
T1 sequence 1: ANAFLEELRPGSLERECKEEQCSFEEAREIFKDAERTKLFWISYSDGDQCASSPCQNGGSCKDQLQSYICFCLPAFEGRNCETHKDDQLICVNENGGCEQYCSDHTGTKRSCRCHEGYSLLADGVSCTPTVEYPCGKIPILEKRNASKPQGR
T1 sequence 2: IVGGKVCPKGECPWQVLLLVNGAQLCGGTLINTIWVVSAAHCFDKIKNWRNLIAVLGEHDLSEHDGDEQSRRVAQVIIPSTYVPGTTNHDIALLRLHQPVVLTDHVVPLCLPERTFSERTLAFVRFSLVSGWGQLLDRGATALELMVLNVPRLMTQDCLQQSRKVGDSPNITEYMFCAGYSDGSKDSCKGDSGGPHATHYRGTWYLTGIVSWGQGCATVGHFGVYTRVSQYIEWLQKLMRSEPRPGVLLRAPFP

B1: VH SEQ ID NO 626 / VL SEQ ID NO 438 (antibody, IgG4, V domains shown)
VH: QVQLQESGPGLVKPSQTLSLTCTVSGYSISSDSAWSWIRQPPGKGLEWIGYIQYSGSTNYNPSLKSRVTISRDTSKNQFSLKLSSVTAADTAVYYCARSVNYYGNSFAVGPWGQGTLVTVSS
VL: EIVLTQSPATLSLSPGERATLSCRASQGVSDYLAWYQQKPGQAPRLLIKYASQPATGIPARFSGSGSGTDFTLTISSLEPEDVAVYYCQNGHSFPLTFGQGTKLEIK
notes: humanized 11F2; IgG4 S228P/kappa
B2: VH SEQ ID NO 634 / VL SEQ ID NO 342 (antibody, IgG4, V domains shown)
VH: QVQLQESGPGLVKPSQTLSLTCTVSGYSISSDSAWSWIRQPPGKGLEWIGYIQYSGSTNYNPSLKSRVTISRDTSKNQFSLKLSSVTAADTAVYYCARSVNYYGNSFAVGYWGQGTLVTVSS
VL: EIVLTQSPATLSLSPGERATLSCRASQGISDYLHWYQQKPGQAPRLLIKYTSQPATGIPARFSGSGSGRDFTLTISSLEPEDFAVYYCQNGHSFPLTFGAGTKLELK
notes: as for B1
B3: VH SEQ ID NO 634 / VL SEQ ID NO 334 (antibody, IgG4, V domains shown)
VH: QVQLQESGPGLVKPSQTLSLTCTVSGYSISSDSAWSWIRQPPGKGLEWIGYIQYSGSTNYNPSLKSRVTISRDTSKNQFSLKLSSVTAADTAVYYCARSVNYYGNSFAVGYWGQGTLVTVSS
VL: EIVLTQSPATLSLSPGERATLSCRASQGISDYLHWYQQKPGQAPRLLIKYASQPATGIPARFSGSGSGTDFTLTISSLEPEDFAVYYCQNGHSFPLTFGQGTKLEIK
notes: as for B1
B4: VH SEQ ID NO 634 / VL SEQ ID NO 326 (antibody, IgG4, V domains shown)
VH: QVQLQESGPGLVKPSQTLSLTCTVSGYSISSDSAWSWIRQPPGKGLEWIGYIQYSGSTNYNPSLKSRVTISRDTSKNQFSLKLSSVTAADTAVYYCARSVNYYGNSFAVGYWGQGTLVTVSS
VL: EIVLTQSPATLSLSPGERATLSCRASQGISDYLHWYQQKPGEAPRLLIKYTSQPATGIPARFSGSGSGTDFTLTISSLEPEDFGVYYCQNGHSFPLTFGAGTKLELK
notes: as for B1
B5: VH SEQ ID NO 634 / VL SEQ ID NO 366 (antibody, IgG4, V domains shown)
VH: QVQLQESGPGLVKPSQTLSLTCTVSGYSISSDSAWSWIRQPPGKGLEWIGYIQYSGSTNYNPSLKSRVTISRDTSKNQFSLKLSSVTAADTAVYYCARSVNYYGNSFAVGYWGQGTLVTVSS
VL: EIVLTQSPATLSLSPGERATLSCRASQGLSDYLAWYQQKPGEAPRLLIKYASQPATGIPARFSGSGSGTDFTLTISSLEPEDFAVYYCQNGHSFPLTFGQGTKLEIK
notes: as for B1
B6: VH SEQ ID NO 626 / VL SEQ ID NO 494 (antibody, IgG4, V domains shown)
VH: QVQLQESGPGLVKPSQTLSLTCTVSGYSISSDSAWSWIRQPPGKGLEWIGYIQYSGSTNYNPSLKSRVTISRDTSKNQFSLKLSSVTAADTAVYYCARSVNYYGNSFAVGPWGQGTLVTVSS
VL: EIVLTQSPATLSLSPGERATLSCRASQGVSDYLHWYQQKPGQAPRLLIKYASQPATGIPARFSGSGSGTDFTLTISSLEPEDVAVYYCQNGHSFPLTFGQGTKLEIK
notes: as for B1
B7: VH SEQ ID NO 634 / VL SEQ ID NO 382 (antibody, IgG4, V domains shown)
VH: QVQLQESGPGLVKPSQTLSLTCTVSGYSISSDSAWSWIRQPPGKGLEWIGYIQYSGSTNYNPSLKSRVTISRDTSKNQFSLKLSSVTAADTAVYYCARSVNYYGNSFAVGYWGQGTLVTVSS
VL: EIVLTQSPATLSLSPGERATLSCRASQGLSDYLHWYQQKPGEAPRLLIKYASQPATGIPARFSGSGSGTDFTLTISSLEPEDFAVYYCQNGHSFPLTFGQGTKLEIK
notes: as for B1
B8: VH SEQ ID NO 634 / VL SEQ ID NO 374 (antibody, IgG4, V domains shown)
VH: QVQLQESGPGLVKPSQTLSLTCTVSGYSISSDSAWSWIRQPPGKGLEWIGYIQYSGSTNYNPSLKSRVTISRDTSKNQFSLKLSSVTAADTAVYYCARSVNYYGNSFAVGYWGQGTLVTVSS
VL: EIVLTQSPATLSLSPGERATLSCRASQGLSDYLAWYQQKPGQAPRLLIKYTSQPATGIPARFSGSGSGTDFTLTISSLEPEDFAVYYCQNGHSFPLTFGQGTKLEIK
notes: as for B1
B9: VH SEQ ID NO 634 / VL SEQ ID NO 390 (antibody, IgG4, V domains shown)
VH: QVQLQESGPGLVKPSQTLSLTCTVSGYSISSDSAWSWIRQPPGKGLEWIGYIQYSGSTNYNPSLKSRVTISRDTSKNQFSLKLSSVTAADTAVYYCARSVNYYGNSFAVGYWGQGTLVTVSS
VL: EIVLTQSPATLSLSPGERATLSCRASQGVSDYLAWYQQKPGEAPRLLIKYASQPATGIPARFSGSGSGTDFTLTISSLEPEDFAVYYCQNGHSFPLTFGQGTKLEIK
notes: as for B1
B10: VH SEQ ID NO 634 / VL SEQ ID NO 318 (antibody, IgG4, V domains shown)
VH: QVQLQESGPGLVKPSQTLSLTCTVSGYSISSDSAWSWIRQPPGKGLEWIGYIQYSGSTNYNPSLKSRVTISRDTSKNQFSLKLSSVTAADTAVYYCARSVNYYGNSFAVGYWGQGTLVTVSS
VL: EIVLTQSPATLSLSPGERATLSCRASQGISDYLHWYQQKPGEAPRLLIKYTSQPATGIPARFSGSGSGTDFTLTISSLEPEDFAVYYCQNGHSFPLTFGQGTKLEIK
notes: as for B1
B11: VH SEQ ID NO 634 / VL SEQ ID NO 358 (antibody, IgG4, V domains shown)
VH: QVQLQESGPGLVKPSQTLSLTCTVSGYSISSDSAWSWIRQPPGKGLEWIGYIQYSGSTNYNPSLKSRVTISRDTSKNQFSLKLSSVTAADTAVYYCARSVNYYGNSFAVGYWGQGTLVTVSS
VL: EIVLTQSPATLSLSPGERATLSCRASQGISDYLHWYQQKPGQAPRLLIKYTSQPATGIPARFSGSGSGTDFTLTISSLEPEDFAVYYCQNGHSFPLTFGQGTKLEIK
notes: as for B1
B12: VH SEQ ID NO 626 / VL SEQ ID NO 478 (antibody, IgG4, V domains shown)
VH: QVQLQESGPGLVKPSQTLSLTCTVSGYSISSDSAWSWIRQPPGKGLEWIGYIQYSGSTNYNPSLKSRVTISRDTSKNQFSLKLSSVTAADTAVYYCARSVNYYGNSFAVGPWGQGTLVTVSS
VL: EIVLTQSPATLSLSPGERATLSCRASQGVSDYLHWYQQKPGQAPRLLIKYASQPATGIPARFSGSGSGTDFTLTISSLEPEDFAVYYCQQGHSFPLTFGQGTKLEIK
notes: as for B1
B13: VH SEQ ID NO 626 / VL SEQ ID NO 454 (antibody, IgG4, V domains shown)
VH: QVQLQESGPGLVKPSQTLSLTCTVSGYSISSDSAWSWIRQPPGKGLEWIGYIQYSGSTNYNPSLKSRVTISRDTSKNQFSLKLSSVTAADTAVYYCARSVNYYGNSFAVGPWGQGTLVTVSS
VL: EIVLTQSPATLSLSPGERATLSCRASQGVSDYLHWYQQKPGEAPRLLIKYASQPATGIPARFSGSGSGTDFTLTISSLEPEDFAVYYCQNGHSFPLTFGQGTKLEIK
notes: as for B1
B14: VH SEQ ID NO 634 / VL SEQ ID NO 398 (antibody, IgG4, V domains shown)
VH: QVQLQESGPGLVKPSQTLSLTCTVSGYSISSDSAWSWIRQPPGKGLEWIGYIQYSGSTNYNPSLKSRVTISRDTSKNQFSLKLSSVTAADTAVYYCARSVNYYGNSFAVGYWGQGTLVTVSS
VL: EIVLTQSPATLSLSPGERATLSCRASQGVSDYLAWYQQKPGEAPRLLIKYTSQPATGIPARFSGSGSGTDFTLTISSLEPEDFAVYYCQNGHSFPLTFGQGTKLEIK
notes: as for B1
B15: VH SEQ ID NO 626 / VL SEQ ID NO 462 (antibody, IgG4, V domains shown)
VH: QVQLQESGPGLVKPSQTLSLTCTVSGYSISSDSAWSWIRQPPGKGLEWIGYIQYSGSTNYNPSLKSRVTISRDTSKNQFSLKLSSVTAADTAVYYCARSVNYYGNSFAVGPWGQGTLVTVSS
VL: EIVLTQSPATLSLSPGERATLSCRASQGVSDYLHWYQQKPGQAPRLLIKYASQPATGIPARFSGSGSGTDFTLTISSLEPEDFAVYYCQNGHSFPLTFGAGTKLEIK
notes: as for B1
B16: VH SEQ ID NO 634 / VL SEQ ID NO 310 (antibody, IgG4, V domains shown)
VH: QVQLQESGPGLVKPSQTLSLTCTVSGYSISSDSAWSWIRQPPGKGLEWIGYIQYSGSTNYNPSLKSRVTISRDTSKNQFSLKLSSVTAADTAVYYCARSVNYYGNSFAVGYWGQGTLVTVSS
VL: EIVLTQSPATLSLSPGERATLSCRASQGISDYLAWYQQKPGQAPRLLIKYASQPATGIPARFSGSGSGTDFTLTISSLEPEDFAVYYCQNGHSFPLTFGQGTKLEIK
notes: as for B1
B17: VH SEQ ID NO 626 / VL SEQ ID NO 486 (antibody, IgG4, V domains shown)
VH: QVQLQESGPGLVKPSQTLSLTCTVSGYSISSDSAWSWIRQPPGKGLEWIGYIQYSGSTNYNPSLKSRVTISRDTSKNQFSLKLSSVTAADTAVYYCARSVNYYGNSFAVGPWGQGTLVTVSS
VL: EIVLTQSPATLSLSPGERATLSCRASQGVSDYLHWYQQKPGQAPRLLIKYASQPATGIPARFSGSGSGTDFTLTISSLEPEDFGVYYCQNGHSFPLTFGQGTKLEIK
notes: as for B1
B18: VH SEQ ID NO 626 / VL SEQ ID NO 502 (antibody, IgG4, V domains shown)
VH: QVQLQESGPGLVKPSQTLSLTCTVSGYSISSDSAWSWIRQPPGKGLEWIGYIQYSGSTNYNPSLKSRVTISRDTSKNQFSLKLSSVTAADTAVYYCARSVNYYGNSFAVGPWGQGTLVTVSS
VL: EIVLTQSPATLSLSPGERATLSCRASQGVSDYLHWYQQKPGQAPRLLIKYTSQPATGIPARFSGSGSGTDFTLTISSLEPEDFAVYYCQNGHSFPLTFGQGTKLEIK
notes: as for B1
B19: VH SEQ ID NO 626 / VL SEQ ID NO 446 (antibody, IgG4, V domains shown)
VH: QVQLQESGPGLVKPSQTLSLTCTVSGYSISSDSAWSWIRQPPGKGLEWIGYIQYSGSTNYNPSLKSRVTISRDTSKNQFSLKLSSVTAADTAVYYCARSVNYYGNSFAVGPWGQGTLVTVSS
VL: EIVLTQSPATLSLSPGERATLSCRASQGVSDYLAWYQQKPGQAPRLLIKYTSQPATGIPARFSGSGSGTDFTLTISSLEPEDFAVYYCQNGHSFPLTFGQGTKLEIK
notes: as for B1
B20: VH SEQ ID NO 634 / VL SEQ ID NO 350 (antibody, IgG4, V domains shown)
VH: QVQLQESGPGLVKPSQTLSLTCTVSGYSISSDSAWSWIRQPPGKGLEWIGYIQYSGSTNYNPSLKSRVTISRDTSKNQFSLKLSSVTAADTAVYYCARSVNYYGNSFAVGYWGQGTLVTVSS
VL: EIVLTQSPATLSLSPGERATLSCRASQGISDYLHWYQQKPGQAPRLLIKYTSQPATGIPARFSGSGSGTDFTLTISSLEPEDFAVYYCQNGHSFPLTFGAGTKLELK
notes: as for B1

For this test, the target named is T1, recombinant human activated Factor VII …. The test can be described thus: BLI (Fortebio). For orientation: Biolayer interferometry detects binding as a change in optical thickness at a sensor tip.
As a reminder, the Kd is the free concentration of one partner at which half of the binding sites on the other are occupied at equilibrium, for simple one-to-one binding. Consider B1, for which the Kd stood at 77 nM.
Regarding B2, the Kd came out at 1 nM.
In the case of B3, the Kd amounted to 1 nM.
In the case of B4 it was 0.9 nM.
The figure for B5 is 3.1 nM; for B6 it is 1.8 nM.
The figure for B7 is 1.2 nM.
As for B8, the Kd is 4.5 nM.
Turning to B9, the Kd turned out to be 4.3 nM.
The figure for B10 is 0.86 nM; for B11 it is 0.82 nM; for B12 it is 2.5 nM.
In the case of B13 it was 1.4 nM; in that of B14, 8.2 nM; in that of B15, 1.4 nM.
In the case of B16 it was 2.1 nM; in that of B17, 1.6 nM; in that of B18, 1.8 nM.
With B19, the Kd amounted to 880 nM.
The figure for B20 is 1.2 nM.
